From US20030211470A1

Tests used:
[1] = target: HIV-1IIIB gp120/gp41 stably expressed on CHO cells (HIV-1 IIIB); experiment: cell-based or functional assay
[2] = target: recombinant gp120 from the laboratory-adapted strain HIV-1LAI (HIV-1 LAI) (UniProt P03377); experiment: modified ELISA; gp120 captured on plate, CD4-IgG2 titrated, 1 h at 37 C, 50% of maximal binding
[3] = target: recombinant gp120 from the primary isolate HIV-1JR-FL (HIV-1 JR-FL) (UniProt P20871); experiment: as above

Substance | IC50 (nM), syncytium inhibition [1] | IC50 (µg/ml), syncytium inhibition [1] | Relative Potency (mass), relative to sCD4 [1] | Relative Potency (molarity), relative to sCD4 [1] | EC50 [2] | EC50 [3]
CD4-IgG2 chimeric heterotetramer (Fc fusion) | 9 nM | 1.81 µg/mL | 5.1 fold | 22.2 fold | 1.25 nM | 0.64 nM
CD4-gamma2 chimeric heavy chain homodimer (Fc fusion) | 40 nM | 4.03 µg/mL | – | – | – | –
